Experimental findings from the Immune Epitope Database (IEDB) are described below.

Among the targets are HLA-A*31:01; HLA-A*33:01; HLA-A*68:01; HLA-A*11:01; HLA-A*03:01.
Common to all, as to assay: IEDB peptide-MHC binding, purified MHC/competitive/radioactivity; filed as Kd, often an IC50 or EC50 that approximates it; ≥ and ≤ were set here for values at or beyond the usual limits of such assays
Where [1] appears, read: source organism: Vaccinia virus WR.
[2] abbreviates: source organism: Mammarenavirus juninense.
Setting [3] is: source organism: SARS coronavirus Tor2.
[4] abbreviates: source organism: Vaccinia virus Copenhagen.

pKd: −log10 of the molar value.

For orientation: pKd means −log10 of the Kd, conventionally taken in molar units. For the sequence PLYIDISDVK, the pKd with HLA-A*31:01 (setting [1]) is 5.02; in the experiment with HLA-A*33:01 (setting [1]), no more than 4.25; with HLA-A*68:01 (setting [1]) it was 5.85; in the experiment with HLA-A*11:01 (setting [1]), 5.04; in the experiment with HLA-A*03:01 (setting [1]), 6.81.
Taken in the same sequence, the figures for EILKINSVK were 5.68, 6.26, 8.58, 5.81 and 6.15.
Taken in the same sequence, the figures for RQTVSRFKK were 7.88, 5.18, 5.33, 7.39 and 7.40.
Take NYTKFWYVNH: the pKd was 6.00 in the experiment with HLA-A*31:01 (setting [2]); 7.26 with HLA-A*33:01 (setting [2]); 5.02 with HLA-A*68:01 (setting [2]); no more than 4.24 with HLA-A*11:01 (setting [2]); no more than 4.15 with HLA-A*03:01 (setting [2]).
With LLIWAYLSK, the pKd in the experiment with HLA-A*31:01 (setting [1]) is 4.95; in the experiment with HLA-A*33:01 (setting [1]), no more than 4.43; with HLA-A*68:01 (setting [1]), 6.82; with HLA-A*11:01 (setting [1]), 7.00; in the experiment with HLA-A*03:01 (setting [1]), 7.04.
As for VTFRERYSYK, the pKd in the experiment with HLA-A*31:01 (setting [1]) was 5.47; with HLA-A*33:01 (setting [1]), 5.61; with HLA-A*68:01 (setting [1]) it was 8.55; with HLA-A*11:01 (setting [1]), 8.50; with HLA-A*03:01 (setting [1]), 9.34.
The like results for GFMRFFQLLR were, in that order, 7.27, 7.06, 5.62, 6.03 and 6.28.
As to QQVVDADSK, the negative-log Kd (pKd) is no more than 4.11 with HLA-A*31:01 (setting [3]); no more than 4.11 with HLA-A*33:01 (setting [3]); no more than 4.18 with HLA-A*68:01 (setting [3]); no more than 4.58 in the experiment with HLA-A*11:01 (setting [3]); no more than 4.55 with HLA-A*03:01 (setting [3]).
With MSYYCKSHK, the pKd with HLA-A*31:01 (setting [3]) is 7.72; in the experiment with HLA-A*33:01 (setting [3]) it was 5.80; with HLA-A*68:01 (setting [3]) it was 7.26; with HLA-A*11:01 (setting [3]) it was 7.10; in the experiment with HLA-A*03:01 (setting [3]), 7.82.
Turning to SLRCGACIRR, the pKd was 7.79 with HLA-A*31:01 (setting [3]); 7.05 with HLA-A*33:01 (setting [3]); 6.04 with HLA-A*68:01 (setting [3]); 6.02 in the experiment with HLA-A*11:01 (setting [3]); 6.58 in the experiment with HLA-A*03:01 (setting [3]).
On to FSNTILLSDK, for which the pKd is 5.90 in the experiment with HLA-A*31:01 (setting [1]); no more than 4.20 in the experiment with HLA-A*33:01 (setting [1]); 7.00 with HLA-A*68:01 (setting [1]); 8.71 with HLA-A*11:01 (setting [1]); 7.59 with HLA-A*03:01 (setting [1]).
As for TAFQHQNSKK, the pKd with HLA-A*31:01 (setting [3]) was no more than 4.27; with HLA-A*33:01 (setting [3]) it was no more than 4.15; with HLA-A*68:01 (setting [3]), 7.79; in the experiment with HLA-A*11:01 (setting [3]), 6.86; with HLA-A*03:01 (setting [3]) it was 6.48.
For FVKKFGLCNY, the negative logarithm of the Kd (pKd) with HLA-A*31:01 (setting [1]) was 4.91; in the experiment with HLA-A*33:01 (setting [1]), no more than 4.35; with HLA-A*68:01 (setting [1]) it was no more than 4.43; with HLA-A*11:01 (setting [1]), 4.82; with HLA-A*03:01 (setting [1]), no more than 4.64.
The like results for VSIILANER were, in that order, 6.89, 5.11, 8.07, 7.33 and no more than 4.11.
The like results for GLSETGFMR were, in that order, 7.07, 6.81, 5.67, 5.57 and 4.79.
As for YLLVKWYKK, the pKd in the experiment with HLA-A*31:01 (setting [4]) was 7.92; with HLA-A*33:01 (setting [4]) it was 7.52; in the experiment with HLA-A*68:01 (setting [4]) it was no more than 4.63; with HLA-A*11:01 (setting [4]), 6.72; in the experiment with HLA-A*03:01 (setting [4]), 6.95.
As for AQPLPQRQK, the pKd is no more than 4.27 in the experiment with HLA-A*31:01 (setting [3]); no more than 4.11 in the experiment with HLA-A*33:01 (setting [3]); 5.52 with HLA-A*68:01 (setting [3]); 6.06 with HLA-A*11:01 (setting [3]); no more than 4.63 with HLA-A*03:01 (setting [3]).
Turning to NSYISNIIY, the pKd is no more than 4.63 with HLA-A*31:01 (setting [1]); 4.93 with HLA-A*33:01 (setting [1]); 6.22 with HLA-A*68:01 (setting [1]); 5.60 with HLA-A*11:01 (setting [1]); 5.13 with HLA-A*03:01 (setting [1]).
Taken in the same sequence, the figures for SMNVAVIDK were 6.21, 5.15, 5.31, 9.56 and no more than 4.17.
As to QTCAGVIEY, the negative logarithm of the Kd (pKd) was 4.72 with HLA-A*31:01 (setting [1]); no more than 4.11 with HLA-A*33:01 (setting [1]); 5.75 with HLA-A*68:01 (setting [1]); 6.87 in the experiment with HLA-A*11:01 (setting [1]); 5.49 with HLA-A*03:01 (setting [1]).
On to LIKKSDAKR, for which the pKd with HLA-A*31:01 (setting [1]) is 7.86; with HLA-A*33:01 (setting [1]), 6.27; with HLA-A*68:01 (setting [1]), 6.77; with HLA-A*11:01 (setting [1]), 6.63; with HLA-A*03:01 (setting [1]) it was no more than 4.11.
For the sequence FLYLYALIY, the pKd with HLA-A*31:01 (setting [3]) is 4.77; with HLA-A*33:01 (setting [3]), 4.75; with HLA-A*68:01 (setting [3]), no more than 4.35; with HLA-A*11:01 (setting [3]), 4.79; with HLA-A*03:01 (setting [3]), 5.18.
VVQRCASNK: the pKd is 5.08 with HLA-A*31:01 (setting [3]); no more than 4.11 with HLA-A*33:01 (setting [3]); no more than 4.32 with HLA-A*68:01 (setting [3]); 6.19 with HLA-A*11:01 (setting [3]); 6.18 with HLA-A*03:01 (setting [3]).
Taken in the same sequence, the figures for ASGNLLLDK were 4.87, no more than 4.11, no more than 4.42, 7.53 and 6.16.
On to PSTVKTNLY, for which the pKd was 5.21 with HLA-A*31:01 (setting [1]); 5.43 with HLA-A*33:01 (setting [1]); 5.10 in the experiment with HLA-A*68:01 (setting [1]); 5.17 with HLA-A*11:01 (setting [1]); no more than 4.39 with HLA-A*03:01 (setting [1]).
As for LFVKKMLPK, the pKd with HLA-A*31:01 (setting [1]) was 5.84; with HLA-A*33:01 (setting [1]), no more than 4.48; with HLA-A*68:01 (setting [1]), 6.33; with HLA-A*11:01 (setting [1]), 6.62; with HLA-A*03:01 (setting [1]), 5.82.
IIMRCWLCWK: the pKd with HLA-A*31:01 (setting [3]) was 7.84; with HLA-A*33:01 (setting [3]) it was 6.70; with HLA-A*68:01 (setting [3]), 9.04; in the experiment with HLA-A*11:01 (setting [3]), 9.37; in the experiment with HLA-A*03:01 (setting [3]), 8.78.
Taken in the same sequence, the figures for MQTMLFTMLR were 8.01, 7.88, 8.96, 7.95 and 7.14.
With SSRVDRYSKK, the pKd with HLA-A*31:01 (setting [1]) is 6.08; in the experiment with HLA-A*33:01 (setting [1]), no more than 4.53; with HLA-A*68:01 (setting [1]) it was 5.52; with HLA-A*11:01 (setting [1]), 6.48; with HLA-A*03:01 (setting [1]), 6.55.
For VIEDITFLR, the pKd in the experiment with HLA-A*31:01 (setting [1]) was 7.56; in the experiment with HLA-A*33:01 (setting [1]), 6.38; with HLA-A*68:01 (setting [1]) it was 7.93; in the experiment with HLA-A*11:01 (setting [1]) it was 7.26; with HLA-A*03:01 (setting [1]), 5.81.
Taken in the same sequence, the figures for ILTYNKTSK were 5.79, no more than 4.70, 6.35, 5.90 and 7.34.
On to SQASSRSSSR, for which the pKd was 6.33 with HLA-A*31:01 (setting [3]); 5.88 with HLA-A*33:01 (setting [3]); 6.40 with HLA-A*68:01 (setting [3]); 5.82 in the experiment with HLA-A*11:01 (setting [3]); 5.10 with HLA-A*03:01 (setting [3]).
For the sequence GTSNWTGNY, the pKd with HLA-A*31:01 (setting [1]) is no more than 4.11; in the experiment with HLA-A*33:01 (setting [1]) it was no more than 4.11; with HLA-A*68:01 (setting [1]) it was 5.43; with HLA-A*11:01 (setting [1]) it was 8.97; with HLA-A*03:01 (setting [1]) it was 7.94.
For SIFPANINDK, the pKd with HLA-A*31:01 (setting [1]) was no more than 4.15; with HLA-A*33:01 (setting [1]), no more than 4.34; in the experiment with HLA-A*68:01 (setting [1]) it was 6.92; with HLA-A*11:01 (setting [1]), 8.13; with HLA-A*03:01 (setting [1]), 5.91.
As for RLISMMGFK, the pKd with HLA-A*31:01 (setting [3]) is 6.98; with HLA-A*33:01 (setting [3]), no more than 4.11; with HLA-A*68:01 (setting [3]) it was 6.15; with HLA-A*11:01 (setting [3]), 7.65; in the experiment with HLA-A*03:01 (setting [3]) it was 8.50.
Consider DFRNRYEDY, for which the pKd is no more than 4.11 with HLA-A*31:01 (setting [1]); 7.02 with HLA-A*33:01 (setting [1]); 5.43 with HLA-A*68:01 (setting [1]); 5.10 with HLA-A*11:01 (setting [1]); 5.56 in the experiment with HLA-A*03:01 (setting [1]).
Regarding YANLDDVYSY, the pKd with HLA-A*31:01 (setting [1]) was no more than 4.48; with HLA-A*33:01 (setting [1]), 4.81; in the experiment with HLA-A*68:01 (setting [1]), 5.78; in the experiment with HLA-A*11:01 (setting [1]), 7.42; in the experiment with HLA-A*03:01 (setting [1]) it was no more than 4.59.
